T1: B7H3 (UniProt Q5ZPR3 29-534, limits assumed)
T1 construct: whole, on cells; also called CD276
T1 sequence (looked up): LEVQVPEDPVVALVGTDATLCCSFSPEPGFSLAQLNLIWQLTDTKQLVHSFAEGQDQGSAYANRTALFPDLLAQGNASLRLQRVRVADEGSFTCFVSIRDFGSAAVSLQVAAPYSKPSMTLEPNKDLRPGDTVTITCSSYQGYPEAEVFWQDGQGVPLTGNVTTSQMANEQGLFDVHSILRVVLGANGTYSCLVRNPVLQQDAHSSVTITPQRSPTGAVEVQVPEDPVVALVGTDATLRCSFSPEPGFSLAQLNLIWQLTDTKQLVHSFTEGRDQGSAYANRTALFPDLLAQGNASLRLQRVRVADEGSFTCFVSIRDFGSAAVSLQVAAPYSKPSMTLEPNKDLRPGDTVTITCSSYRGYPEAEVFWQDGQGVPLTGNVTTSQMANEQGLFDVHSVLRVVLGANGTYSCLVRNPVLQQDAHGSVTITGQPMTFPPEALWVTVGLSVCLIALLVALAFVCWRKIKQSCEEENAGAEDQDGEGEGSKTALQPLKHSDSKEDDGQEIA

B1: cx5187 (other)
chain 1: EVQLVESGGGEVQPGGSLRLSCAASGFSFSSNVMMWVRQAPGKGLEWVSTIYSSGTGTFYAESVKGRFTISRDNAKNTLYLQMSSLRPEDTAVYYCATSGPVRGWGPRSQGTLVTVKPPGGGGDKTHTCPPCPAPGGPSVFLFPPKPKDTLMISRTPEVTCVVVDVSHEDPEVKFNWYVDGVEVHNAKTKPREEQYNSTYRVVSVLTVLHQDWLNGKEYKCKVSNKALPAPIEKTISKAKGQPREPQVYTLPPCRDELTKNQVSLWCLVKGFYPSDIAVEWESNGQPENNYKTTPPVLDSDGSFFLYSKLTVDKSRWQQGNVFSCSVMHEALHNHYTQKSLSLSPTGGGGGSGGGGGSGGGGGSEVQLVESGGGLVQPGGSLRLSCAASGFTFNTYAMNWVRQAPGKCLEWVARIRSKYNNYATYYADSVKGRFTISRDDAKNTLYLQMSSLRAEDTAVYYCVRHGNFGNSYVSWFAYWGQGTLVTVKPGGGGEVQLVESGGGEVQPGGSLRLSCAASGFTFSSYHMSWFRQAPGKQREPVATSHHGGTTNYAGSVKGRFTISRDNAKNTVYLQMNTLRAEDTAVYYCKADHGYQGRGYWGQGTLVTVKP
chain 2: DKTHTCPPCPAPGGPSVFLFPPKPKDTLMISRTPEVTCVVVDVSHEDPEVKFNWYVDGVEVHNAKTKPREEQYNSTYRVVSVLTVLHQDWLNGKEYKCKVSNKALPAPIEKTISKAKGQPREPQVCTLPPSRDELTKNQVSLSCAVKGFYPSDIAVEWESNGQPENNYKTTPPVLDSDGSFFLVSKLTVDKSRWQQGNVFSCSVMHEALHNRYTQKSLSLSPTGGGGGSGGGGGSGGGGGSQAVVTQEPSLTVSPGGTVTLTCGSSTGAVTTSNYANWVQQKPGQAFRGLIGGTNKRAPGVPARFSGSLLGGKAALTISGAQPEDEADYYCALWYSNHWVFGCGTKLEIKGGGGEVQLLESGGGEVQPGGSLRLSCAASGFSFSINAMGWYRQAPGKRREFVAAIESGRNTVYAESVKGRFTISRDNAKNTVYLQMSSLRAEDTAVYYCGLLKGNRVVSPSVAYWGQGTLVTVKP
notes: hole 91, 93 or 296, differing at the C-terminal end; the first is written; also called bivalent, bi-epitopic B7H3-targeted constrained CD3 engaging construct; Knob-VH
B2: cx5873 (other)
chain 1: DKTHTCPPCPAPGGPSVFLFPPKPKDTLMISRTPEVTCVVVDVSHEDPEVKFNWYVDGVEVHNAKTKPREEQYNSTYRVVSVLTVLHQDWLNGKEYKCKVSNKALPAPIEKTISKAKGQPREPQVYTLPPCRDELTKNQVSLWCLVKGFYPSDIAVEWESNGQPENNYKTTPPVLDSDGSFFLYSKLTVDKSRWQQGNVFSCSVMHEALHNHYTQKSLSLSPTGGGGGSGGGGGSGGGGGSEVQLVESGGGLVQPGGSLRLSCAASGFTFNTYAMNWVRQAPGKCLEWVARIRSKYNNYATYYADSVKGRFTISRDDAKNTLYLQMSSLRAEDTAVYYCVRHGNFGNSYVSWFAYWGQGTLVTVKPGGGGEVQLVESGGGEVQPGGSLRLSCAASGFTFSSYHMSWFRQAPGKQREPVATSHHGGTTNYAGSVKGRFTISRDNAKNTVYLQMNTLRAEDTAVYYCKADHGYQGRGYWGQGTLVTVKP
chain 2: DKTHTCPPCPAPGGPSVFLFPPKPKDTLMISRTPEVTCVVVDVSHEDPEVKFNWYVDGVEVHNAKTKPREEQYNSTYRVVSVLTVLHQDWLNGKEYKCKVSNKALPAPIEKTISKAKGQPREPQVCTLPPSRDELTKNQVSLSCAVKGFYPSDIAVEWESNGQPENNYKTTPPVLDSDGSFFLVSKLTVDKSRWQQGNVFSCSVMHEALHNRYTQKSLSLSPTGGGGGSGGGGGSGGGGGSQAVVTQEPSLTVSPGGTVTLTCGSSTGAVTTSNYANWVQQKPGQAFRGLIGGTNKRAPGVPARFSGSLLGGKAALTISGAQPEDEADYYCALWYSNHWVFGCGTKLEIKGGGGEVQLLESGGGEVQPGGSLRLSCAASGFSFSINAMGWYRQAPGKRREFVAAIESGRNTVYAESVKGRFTISRDNAKNTVYLQMSSLRAEDTAVYYCGLLKGNRVVSPSVAYWGQGTLVTVKP
notes: Fc alternatives printed; first written; Short peptide linkers only 'e.g.'; also called monovalent B7H3-targeting constrained CD3 engaging construct (C-terminal sdAb)
B3: cx5965 (other)
chain 1: EVQLVESGGGEVQPGGSLRLSCAASGFSFSSNVMMWVRQAPGKGLEWVSTIYSSGTGTFYAESVKGRFTISRDNAKNTLYLQMSSLRPEDTAVYYCATSGPVRGWGPRSQGTLVTVKPPGGGGDKTHTCPPCPAPGGPSVFLFPPKPKDTLMISRTPEVTCVVVDVSHEDPEVKFNWYVDGVEVHNAKTKPREEQYNSTYRVVSVLTVLHQDWLNGKEYKCKVSNKALPAPIEKTISKAKGQPREPQVYTLPPCRDELTKNQVSLWCLVKGFYPSDIAVEWESNGQPENNYKTTPPVLDSDGSFFLYSKLTVDKSRWQQGNVFSCSVMHEALHNHYTQKSLSLSPTGGGGGSGGGGGSGGGGGSEVQLVESGGGLVQPGGSLRLSCAASGFTFNTYAMNWVRQAPGKCLEWVARIRSKYNNYATYYADSVKGRFTISRDDAKNTLYLQMSSLRAEDTAVYYCVRHGNFGNSYVSWFAYWGQGTLVTVKP
chain 2: DKTHTCPPCPAPGGPSVFLFPPKPKDTLMISRTPEVTCVVVDVSHEDPEVKFNWYVDGVEVHNAKTKPREEQYNSTYRVVSVLTVLHQDWLNGKEYKCKVSNKALPAPIEKTISKAKGQPREPQVCTLPPSRDELTKNQVSLSCAVKGFYPSDIAVEWESNGQPENNYKTTPPVLDSDGSFFLVSKLTVDKSRWQQGNVFSCSVMHEALHNRYTQKSLSLSPTGGGGGSGGGGGSGGGGGSQAVVTQEPSLTVSPGGTVTLTCGSSTGAVTTSNYANWVQQKPGQAFRGLIGGTNKRAPGVPARFSGSLLGGKAALTISGAQPEDEADYYCALWYSNHWVFGCGTKLEIKGGGGEVQLLESGGGEVQPGGSLRLSCAASGFSFSINAMGWYRQAPGKRREFVAAIESGRNTVYAESVKGRFTISRDNAKNTVYLQMSSLRAEDTAVYYCGLLKGNRVVSPSVAYWGQGTLVTVKP
notes: Fc alternatives printed; first written; Short peptide linkers only 'e.g.'; also called monovalent B7H3-targeting constrained CD3 engaging construct (N-terminal sdAb)
B4: cx5823 (other)
chain 1: EVQLVESGGGEVQPGGSLRLSCAASGFSFSSNVMMWVRQAPGKGLEWVSTIYSSGTGTFYAESVKGRFTISRDNAKNTLYLQMSSLRPEDTAVYYCATSGPVRGWGPRSQGTLVTVKPPGGGGDKTHTCPPCPAPGGPSVFLFPPKPKDTLMISRTPEVTCVVVDVSHEDPEVKFNWYVDGVEVHNAKTKPREEQYNSTYRVVSVLTVLHQDWLNGKEYKCKVSNKALPAPIEKTISKAKGQPREPQVYTLPPCRDELTKNQVSLWCLVKGFYPSDIAVEWESNGQPENNYKTTPPVLDSDGSFFLYSKLTVDKSRWQQGNVFSCSVMHEALHNHYTQKSLSLSPGGGGGGSGGGGGSGGGGGSEVQLVESGGGLVQPGGSLRLSCAASGFTFNTYAMNWVRQAPGKCLEWVARIRSKYNNYATYYADSVKGRFTISRDDAKNTLYLQMSSLRAEDTAVYYCVRHGNFGNSYVSWFAYWGQGTLVTVKPGGGGEVQLVESGGGEVQPGGSLRLSCAASGFTFSSYHMSWFRQAPGKQRELVATSHHGGTTNYAGSVKGRFTISRDNAKNTVYLQMNTLRAEDTAVYYCKADHGYQGRGYWGQGTLVTVKP
chain 2: DKTHTCPPCPAPGGPSVFLFPPKPKDTLMISRTPEVTCVVVDVSHEDPEVKFNWYVDGVEVHNAKTKPREEQYNSTYRVVSVLTVLHQDWLNGKEYKCKVSNKALPAPIEKTISKAKGQPREPQVCTLPPSRDELTKNQVSLSCAVKGFYPSDIAVEWESNGQPENNYKTTPPVLDSDGSFFLVSKLTVDKSRWQQGNVFSCSVMHEALHNRYTQKSLSLSPGGGGGGSGGGGGSGGGGGSQAVVTQEPSLTVSPGGTVTLTCGSSTGAVTTSNYANWVQQKPGQAFRGLIGGTNKRAPGVPARFSGSLLGGKAALTISGAQPEDEADYYCALWYSNHWVFGCGTKLEIKGGGGEVQLLESGGGEVQPGGSLRLSCAASGFSFSINAMGWYRQAPGKRREFVAAIESGRNTVYAESVKGRFTISRDNAKNTVYLQMSSLRAEDTAVYYCGLLKGNRVVSPSVAYWGQGTLVTVKP
notes: Short peptide linkers only 'e.g.'; also called bivalent B7H3-targeting constrained CD3 engaging construct

Key:
[1] = biological target: T1, B7H3; experiment: cell binding assay on A375 cells
[2] = biological target: T2, CD3 (human, UniProt P07766 23-207); experiment: cell binding assay on isolated primary T cells
T2 construct: whole, on cells; CD3 is a multi-chain complex; also called CD3ε; CD3 on the surface of primary T cells
T2 sequence (P07766 23-207): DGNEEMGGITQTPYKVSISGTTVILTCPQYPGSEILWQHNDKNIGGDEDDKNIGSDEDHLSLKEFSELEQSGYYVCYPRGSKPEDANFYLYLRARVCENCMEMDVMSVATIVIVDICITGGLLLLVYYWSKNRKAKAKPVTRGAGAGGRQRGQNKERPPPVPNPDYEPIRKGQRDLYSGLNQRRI

| Binder | binding result [1] | binding result [2] |
| --- | --- | --- |
| B1 | binds | no binding |
| B2 | binds | no binding |
| B3 | binds | no binding |
| B4 | – | no binding |
